Data on 7 molecules can be found in patent US20190309288A1, “TARGETED MUTAGENESIS” (THE BOARD OF TRUSTEES OF THE LELAND STANFORD JUNIOR …, priority 2016, published 2019).

The test system of one series is GFP and mCherry. Kind of series: Simultaneous mutation of two loci, flow cytometry. In kind it is cell-based. The note with it: cells expressing dCas9, MS2-AID*Δ. The protocol:
Scatter plots were generated in FlowJo.
Independent mutagenesis at multiple locations is typically not possible with traditional directed evolution experiments. However, the CRISPR/Cas9 system can target multiple loci using different sgRNAs (26, 27). Accordingly, experiments were conducted using two guides, one targeting GFP (sgGFP.10) and the other targeting mCherry (sgmCherry.1), both individually and in combination.
For orientation: Flow cytometry measures light scatter and fluorescence of single cells or particles in a stream.

The next series has as its system mCherry. Kind of series: mCherry fluorescence by flow cytometry as proxy for off-target mutation. In kind it is cell-based. To be noted: cells expressing dCas9, MS2-AID*Δ, GFP, sgRNA individually. Here is the method:
(§1) Lentiviral production as well as infection and culturing of K562 cells (ATCC) were performed as described (45). Parental K562 cell lines were generated by infecting dCas9-Blast (pGH125) followed by blasticidin selection (10 μg/mL, Gibco) for 7 days. Cells were subsequently infected with both GFP (pGH045) and mCherry (pGH044) expression vectors or with a wtGFP (pGH220) expression vector and sorted via FACS for fluorescence. These cell lines were used as the parental samples in the sequencing assays. For experiments using an integrated construct, cells were infected with MS2-AID (pGH153, 156, 183, and 335) expressing vectors followed by selection with hygromycin B (200 μg/mL, Life Technologies) for 7 days. All cell lines were maintained in a humidified incubator (37° C., 5% CO2), and checked regularly for mycoplasma contamination.
(§2) Nucleofection of K562 cells was performed as described (46). 1 million K562 cells were harvested for each electroporation. Cells were centrifuged at 300×g for 5 minutes and resuspended in 100 μL of nucleofection solution and mixed with plasmid DNA (5 μg MS2-AID expressing plasmid and 5 μg sgRNA expression vector) and loaded into a 2 mm cuvette (VWR). Electroporations were performed using the T-016 program on the Lonza Nucleofector 2b. After electroporation, cells were rescued in warm, supplemented RPMI media.

The next series deals with GFP. To be noted: cells expressing dCas9, MS2-AID*Δ, mCherry, sgRNA individually. Here is the method:
as §1, §2

A further series has as its system PSMB5. Put plainly: Installation and validation of bortezomib resistant PSMB5 mutations, cell viability. It is filed as cell-based. The note with it: mutation knocked into K562 cells at native PSMB5 locus; 20 nM bortezomib, 14 days; compared to controls. The protocol:
sgRNAs were designed to target near the location of the installed SNP and 101-nt donor oligos were designed to be centered around the installed mutation. Oligonucleotides with proper overhangs were ordered from IDT and annealed before ligation into BbsI digested pGH020, a hu6 driven sgRNA expression vector. All plasmids were verified by Sanger sequencing.
K562 cells expressing Cas9 were electroporated with 5 μg of sgRNA expressing vector and 100 picomoles of donor oligo. Cells were grown for 6 days before 300,000 cells were placed under selection with 20 nM bortezomib for 14 days. The viability of the cells was measured by flow cytometry using a live cell gate (FSC/SSC). After selection, 750,000 cells were harvested and genomic DNA was extracted using the QiaAmp DNA Mini Kit (Qiagen). The PSMB5 exonic locus containing the mutation was PCR amplified, gel purified, and ligated into the pCR-Blunt vector using the Zero-Blunt cloning kit (Life Technologies). 8-15 colonies were Sanger sequenced for each sample.
Eight of these mutations were functionally validated by knocking each one into the genome separately at the native PSMB5 locus using active Cas9 cutting followed by HDR mediated by a DNA donor oligo (26, 27). To control for the effect of Cas9 cutting and HDR, a synonymous mutation not identified in our screen was knocked into each exon. Cas9 expressing K562 cells were electroporated with donor oligo and sgRNA and incubated for six days followed by subsequent selection with bortezomib. After 14 days, the viability of the cells was measured (FIG. 12). […] For the most resistant mutations, the PSMB5 locus was sequenced following bortezomib selection and the presence of the expected mutation was verified in the majority of non-frameshifted sequences (FIG. 13). Together, these experiments indicate that the technology provided herein selectively mutagenized an endogenously expressed protein target, identifying known and novel mutants that confer drug resistance.

Consider “sgmCherry.1: sgRNA targeting mCherry, sequence GCGGTCTGGGTGCCCTCGTA (SEQ ID NO: 81) (listed as DNA, chemistry not fully specified)”, for which, in the series on GFP and mCherry, the “cells with mutations at both loci (neither GFP nor mCherry)” value stood at 0.30%. Besides, the mCherry low population with mCherry is about 15%. In turn, “sgGFP.10: sgRNA targeting GFP, sequence CGTCGCCGTCCAGCTCGACC (SEQ ID NO: 38) (chemistry not given here)” displayed a GFP low population in the series with GFP of about 15%. In addition, the “cells with mutations at both loci (neither GFP nor mCherry)” value in the series with GFP and mCherry amounted to 0.26%.

B1: R78N: PSMB5 variant, chr14: 23033640 C > A/T (protein, UniProt P28074 60-263, looked up, variant R78N)
Proteasome subunit beta type-5: TTTLAFKFRHGVIVAADSNATAGAYIASQTVKKVIEINPYLLGTMAGGAADCSFWERLLARQCRIYELRNKERISVAAASKLLANMVYQYKGMGLSMGTMICGWDKRGPGLYYVDSEGNRISGATFSVGSGSVYAYGVMDRGYSYDLEVEQAYDLARRAIYQATYRDAYSGGAVNLYHVREDGWIRVSSDNVADLHEKYSGSTP
With B1, the “protection against bortezomib-induced cell death (viability)” value (“protection” for short) in the series with PSMB5 is “strongly protective”.

B2: A108V: PSMB5 variant, chr14: 23033550 G > A; residue known to be involved in binding bortezomib (protein, UniProt P28074 60-263, looked up, variant A108V)
Proteasome subunit beta type-5: TTTLAFKFRHGVIVAADSRATAGAYIASQTVKKVIEINPYLLGTMAGGVADCSFWERLLARQCRIYELRNKERISVAAASKLLANMVYQYKGMGLSMGTMICGWDKRGPGLYYVDSEGNRISGATFSVGSGSVYAYGVMDRGYSYDLEVEQAYDLARRAIYQATYRDAYSGGAVNLYHVREDGWIRVSSDNVADLHEKYSGSTP
As for B2, in the series with PSMB5, the “protection” value is on record as “strongly protective”.

B3: G242D: PSMB5 variant in exon 4, chr14: 23026156 C > T (protein, UniProt P28074 60-263, looked up, variant G242D)
Proteasome subunit beta type-5: TTTLAFKFRHGVIVAADSRATAGAYIASQTVKKVIEINPYLLGTMAGGAADCSFWERLLARQCRIYELRNKERISVAAASKLLANMVYQYKGMGLSMGTMICGWDKRGPGLYYVDSEGNRISGATFSVGSGSVYAYGVMDRGYSYDLEVEQAYDLARRAIYQATYRDAYSGGAVNLYHVREDDWIRVSSDNVADLHEKYSGSTP
With B3, the “protection” value in the series with PSMB5 is “strongly protective”.

B4: G82D: PSMB5 variant, chr14: 23033628 C > T (protein, UniProt P28074 60-263, looked up, variant G82D)
Proteasome subunit beta type-5: TTTLAFKFRHGVIVAADSRATADAYIASQTVKKVIEINPYLLGTMAGGAADCSFWERLLARQCRIYELRNKERISVAAASKLLANMVYQYKGMGLSMGTMICGWDKRGPGLYYVDSEGNRISGATFSVGSGSVYAYGVMDRGYSYDLEVEQAYDLARRAIYQATYRDAYSGGAVNLYHVREDGWIRVSSDNVADLHEKYSGSTP
With B4, in the series on PSMB5, the “protection” value is reported as “more modest protection”.

B5: L11L: PSMB5 synonymous mutation in exon 1, chr14: 23034851 G > A (protein, UniProt P28074 60-263, looked up)
Proteasome subunit beta type-5: TTTLAFKFRHGVIVAADSRATAGAYIASQTVKKVIEINPYLLGTMAGGAADCSFWERLLARQCRIYELRNKERISVAAASKLLANMVYQYKGMGLSMGTMICGWDKRGPGLYYVDSEGNRISGATFSVGSGSVYAYGVMDRGYSYDLEVEQAYDLARRAIYQATYRDAYSGGAVNLYHVREDGWIRVSSDNVADLHEKYSGSTP
modifications: synonymous mutation L11L
notes: PSMB5 synonymous mutation in exon 1, chr14: 23034851 G > A
With B5, the “protection” value with PSMB5 is “more modest protection”.
